From article PMC4139611, “Differential expression of Homeobox C11 protein in water buffalo Bubalus bubalis and its putative 3D structure” come the findings set out here.

The data set addresses HOXC11 (His-HOXC11) (Bubalus bubalis (water buffalo), UniProt W5XU26 1-304). Put plainly: EMSA; supershift with anti-HOXC11 antibody; 10 mM Tris pH 7.9, 1 mM DTT, 0.1 mM EDTA, 50 mM KCl, 5% glycerol, 30 min at 4 °C; 5% native PAGE in 1x TBE at room temperature. The conditions noted are these: protein: recombinant; tags: N-terminal His6 with thrombin site; label: 32P (alpha-32P-dCTP); 5' overhang 4 nt (GATC) at both ends. On the technique in general: A gel shift assay detects complexes by their altered migration in electrophoresis.

HOXC11 (His-HOXC11), sequence (W5XU26 entry or part of it): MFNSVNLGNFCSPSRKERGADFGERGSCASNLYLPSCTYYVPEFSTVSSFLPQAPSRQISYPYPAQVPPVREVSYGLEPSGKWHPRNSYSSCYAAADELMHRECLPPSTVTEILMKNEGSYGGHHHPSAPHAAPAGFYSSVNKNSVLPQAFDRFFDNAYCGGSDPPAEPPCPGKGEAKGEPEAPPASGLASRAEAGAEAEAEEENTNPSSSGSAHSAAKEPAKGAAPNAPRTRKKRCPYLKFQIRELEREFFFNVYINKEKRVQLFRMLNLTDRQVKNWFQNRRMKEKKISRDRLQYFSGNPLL

B1: CE-LPH1 probe (LPH promoter) (dsDNA)
DNA 1: GATCTTTTACAACCTCAGTTG
DNA 2: GATCCAACTGAGGTTGTAAAA
Regarding B1, the binding result is on record as “binds”.
